Literature values in article PMC2726996.

Tests used:
[1] = target: EGFR (low-affinity sites) (Homo sapiens) (UniProt P00533)
[2] = target: EGFR (high-affinity sites) (Homo sapiens) (UniProt P00533)

**Q.** Which Kd [1] does the source give for EGF (from UniProt P01133) here?
**A.** Its Kd is 0.01 µM.

**Q.** And the Kd [2]?
**A.** Its Kd is under 0.0001 µM.
